“Also recorded” adds a separate entry of the source. Read-outs that look alike come from different tables or passages of the source.
Columns and labels:
[1] = biological target: wild-type sphingosine kinase (Homo sapiens, UniProt Q9NYA1); details: chemical inhibitor hitherto used widely; cited from earlier work
[2] = tested on: overexpressed wild-type sphingosine kinase; experiment: Activation of overexpressed wild-type sphingosine kinase by TNFα in cotransfected HEK293 cells; assay type: cell-based, human; details: for effect on activation of overexpressed wild-type sphingosine kinase: HEK293 cells cotransfected with equal proportions, 1 ng/ml TNFα 10 min (FIG. 5)
Description: HEK293 cells, either transfected with pcDNA3-SK, or cotransfected with equval proportions of pcDNA3-SK and pcDNA3-G82DSK were treated with 1 ng/ml TNFα for 10 min. Cells were then harvested and the SK activity in the cell lysates determined.
(§1) Cell Culture and Transfection—Human embryonic kidney cells (HEK293T, ATCC CRL-1573) cells were cultured on Dulbecco's modified Eagle's medium (DMEM; CSL Biosciences, Parkville, Austrlia) containing 10% fetal calf serum, 2 mM glutamine, 0.2% (w/v) sodium bicarbonate, penicillin (1.2 mg/ml), and gentamycin (1.6 mg/ml). Transfections were performed using the calcium phosphate precipitation method (Graham & van der Eb, 1973). Cells were harvested and lysed by sonication (2 watts for 30 s at 4° C.) in lysis buffer containing 50 mM Tris/HCl (pH 7.4), 10% glycerol, 0.05% Triton X-100, 150 mM NaCl, 1 mM dithiothreitol, 2 mM Na3VO4 10 mM NaF, and 1 mM EDTA. Protein concentrations in cell homogenates were determined with either the Coomassie Brillant Blue (Sigma) or Bichinchoninic acid (Pierce) reagents using BSA as standard.

[3] = Sphingosine kinase activity of lysates of HEK293/HEK293T cells transfected with hSK or mutant hSK; assay type: biochemical, human; details: for sphingosine kinase (catalytic) activity of the variant itself: transfected HEK293 cells (FIG. 2); for Vmax: standardised for the expression levels of the two recombinant proteins
Description: as §1
as §1, with “Australia)” for “Austrlia)”, “Na3VO4,” for “Na3VO4”, “with” for “with either”, “Brilliant” for “Brillant”, “reagent” for “or Bichinchoninic acid (Pierce) reagents”
(§2) Kinetic parameters were calculated using a non-linear regression program.

protein kinase C = experiment: Protein kinase C activity in situ in HEK293 cells (TNFα or PMA); assay type: cell-based, human; details: TNFα or PMA (FIG. 7)
Description: (§5) Neutral sphingomyelinase activity was determined using [choline-methyl-^14C]sphingomyelin as substrate, essentially as previously described (Wiegmann et al., 1994). Briefly, whole cell lysates, prepared as described above, were added to an equal volume of 100 mM Tris/HCl buffer (pH 7.4) containing 0.2% Triton X-100, 10 mM MgCl2 and [choline-methyl-^14C]sphingomyelin (50,000 cpm/assay) and incubated at 37° C. for 60 min. Radioactive phosphorylcholine produced was then extracted with chloroform/methanol (2:1, v/v) and quantified in the aqueous phase by scientillation counting. The measurement of PKC activity in situ was performed as described previously (Xia et al., 1996). Briefly, cells were seeded in 24-well plates and maintained in culture medium until 70-80% confluent. After the indicated treatments, the cells were washed with DMEM and placed in 60 μl of buffered salt solution (137 mM NaCl, 5.4 mM KCl, 0.3 mM Na2HPO4, 0.4 mM KH2PO4, 5.5 mM glucose, and 20 mM HEPES) supplemented with 50 μg/ml digitonin, 10 mM MgCl2, 25 mM β-glycerophosphate, and 10 μM [γ^32P]ATP (5000 cpm/pmol). A PKC-specific peptide substrate ([sequence]) was then added (to 2001) in the presence of 5 mM EGTA and 2.5 mM CaCl2. […] The PKC-dependent phosphorylated peptide substrate bound to the filter was quantified by scintillation counting.

sphingomyelinase = details: HEK293 cells, TNF (FIG. 8)
Description: as §5

[4] = tested on: sphingosine kinase stimulated by the oncogene Ras; experiment: Activation of SK by the oncogene Ras in 3T3 fibroblasts; assay type: cell-based; details: 3T3 fibroblasts (FIG. 6)
Description: (§3) A. NIH 3T3 cells were transfected with V12-Ras, v-Src or V12-Ras plus G82D-SK, SphK activity was measured 48 h after transfection. B. Focus formation assays were performed in V12-Ras, v-Src, SphK, or V12-Ras plus G82D-SK transfected NIH 3T3 cells in the absence or presence of DMS (2.5 μM) over two weeks.
(§4) For focus formation assay, low passage NIH 3T3 cells were transfected with the V12 mutant H-ras, v-SRC (gifts from Dr. Julian Downward^2), SphK, G82D mutant SphK expression vectors or empty vector using Lipofectamine Plus as described above. Two days later, the transfected cells were split to 6-well plates. After reaching confluence, they were kept for two weeks in DMEM containing 5% calf serum. The foci were visualized and scored after staining with 0.5% crystal violet. For soft agar assay, suspensions of 1×10^4 cells from the stable transfected pools in a growth medium containing 0.33% agar were overlaid onto 0.6% agar gel in the absence or presence of DMS at various concentrations. After 14-days incubation colonies were stained with 0.1 mg/ml MTT and those greater than 0.1 mm in diameter were scored as positive.

ERK = ERK activation by TNFα in HEK293 cells (Western blot); assay type: cell-based, human; details: TNFα (FIG. 9)
Description: Western Blotting—SDS-PAGE was performed on cell lysates according to the method of Laemmli using 12% acrylamide gels. Proteins were blotted to nitrocellulose and the membranes blocked overnight at 4° C. in PBS containing 5% skim milk and 0.1% Triston X-100. Sphingosine kinase expression levels were analysed with the M2 anti-FLAG antibody (Sigma). ERK activation in response to agonists was followed in cells serum-starved for 4 h using anti-ERK1/2 (Zymed, San Francisco, Calif.) and anti-phospho-ERK1/2 (Promega, Madison, Wis.) antibodies. Immunocomplexes were detected after conjugation to either HRP anti-mouse (Pierce) or anti-rabbit (Selinus/AMRAD, Melbourne, Australia) IgG using an enhanced chemiluminescence kit (Amersham).

[5] = tested on: endogenous sphingosine kinase; experiment: Activation of endogenous sphingosine kinase activity by TNFα, IL-1 and PMA in HEK293 cells expressing the variant; assay type: cell-based, human; details: for effect on increases in sphingosine kinase activity after activating agents: 100 units/ml IL-1 10 min, 100 ng/ml PMA 30 min (FIGS. 3 & 4)
Description: HEK293 cells transfected with either pcDNA3-G82DSK or empty pcDNA3 vector were treated with 1 ng/ml TNFα and 100 units/ml IL-1 for 10 min and 100 ng/ml PMA for 30 min.
FIG. 4 is a graphical representation of time course of sphingosine kinase activation by TNFα in HEK293 cells expressing G82D SK. HEK293 cells transfected with either pcDNA3-G82DSK or empty pcDNA3 vector were treated with 1 ng/ml TNFα. Cells were harvested at various times over 45 min. of TNFα treatment with the cell lysates assayed for sphingosine kinase activity.
as §1

NIH 3T3 cells = experiment: Focus formation (transformation) assay in V12-Ras transfected NIH 3T3 cells; assay type: cell-based; details: V12-Ras plus G82D-SK transfected NIH 3T3 cells, two weeks (FIG. 11)
Description: as §3, §4

[6] = Kinetic analysis of hSK with sphingosine; assay type: biochemical, human; details: for Km: sphingosine 0-2 mM, ATP 1 mM (hSK^WT), 40 mM (hSK^G82A), non-linear regression
Description: Kinetic analyses were performed with sphingosine in the concentration range of 0-2 mM for both hSK^WT and hSK^G82A. ATP was present at 1 mM and 40 mM for hSK^WT and hSK^G82A, respectively.
as §2

[7] = Kinetic analysis of hSK with ATP; assay type: biochemical, human
Description: Kinetic analyses were performed with ATP in the concentration range of 0-2 mM and 0-40 mM for hSK^WT and hSK^G82A, respectively. In both cases sphingosine was present at 100 μM.
as §2

Molecule: CCCCCCCCCCCCC/C=C/[C@@H](O)[C@H](CO)N(C)C [DMS, N′N-dimethylsphingosine]
- effect on wild-type sphingosine kinase function [1]: totally eliminates

B1: G82DSK: human sphingosine kinase mutant, substitution of the glycine at position 82 to aspartic acid (protein)
chain: MDPAGGPRGVLPRPCRVLVLLNPRGGKGKALQLFRSHVQPLLAEAEISFTLMLTERRNHARELVRSEELGRWDALVVMSGDDLMHEVVNGLMERPDWETAIQKPLCSLPAGSGNALAASLNHYAGYEQVTNEDLLTNCTLLLCRRLLSPMNLLSLHTASGLRLFSVLSLAWGFIADVDLESEKYRRLGEMRFTLGTFLRLAALRTYRGRLAYLPVGRVGSKTPASPVVVQQGPVDAHLVPLEEPVPSHWTVVPDEDFVLVLALLHSHLGSEMFAAPMGRCAAGVMHLFYVRAGVSRAMLLRLFLAMEKGRHMEYECPYLVYVPVVAFRLEPKDGKGVFAVDGELMVSEAVQGQVHPNYFWMVSGCVEPPPSWKPQQMPPPEEPL
- effect on activation of overexpressed wild-type sphingosine kinase [2]: activation is decreased
- effect on activation of overexpressed wild-type sphingosine kinase ([2]; listed as G82D SK): decreases activation
- effect on overexpressed baseline sphingosine kinase levels ([2]; HEK293 cells overexpressing sphingosine kinase (FIG. 5)): not altered
- sphingosine kinase (catalytic) activity of the variant itself [3]: no sphingosine kinase activity
- sphingosine kinase (catalytic) activity of the variant itself ([3]; listed as G82D): catalytically inactive
- effect on activation of protein kinase C (protein kinase C): does not depress
- effect on activation of protein kinase C (protein kinase C; listed as G82D SK): does not effect activation
- effect on activation of sphingomyelinase (sphingomyelinase): does not depress
- effect on activation of sphingomyelinase (sphingomyelinase; listed as G82D SK): does not inhibit activation
- effect on sphingosine kinase stimulated by the oncogene Ras [4]: inhibits
- effect on sphingosine kinase stimulated by the oncogene Ras ([4]; listed as G82D SK): inhibiting activation
- effect on activation of erk by TNF (ERK): inhibits
- effect on activation of erk by TNF (ERK; listed as G82D SK): prevents ERK activation
- effect on increases in sphingosine kinase activity after activating agents ([5]; 1 ng/ml TNFα): totally suppresses; also recorded: only eliminates activation
- effect on increases in sphingosine kinase activity after activating agents ([5]; 1 ng/ml TNFα, listed as G82D SK): blocks activation
- effect on TNF mediated sphingosine kinase activation over time ([5]; 1 ng/ml TNFα, time course over 45 min (FIG. 4)): inhibits TNF mediated activation at all time point
- effect on endogenous baseline sphingosine kinase activity ([5]; no stimulus (FIG. 2)): does not suppress
- effect on Ras transformation (focus formation) (NIH 3T3 cells): inhibits Ras transformation

B2: hSK^G82A: human sphingosine kinase mutant, substitution of the glycine at position 82 to alanine (protein, UniProt Q9NYA1 1-384, looked up, variant G82A)
Sphingosine kinase 1: MDPAGGPRGVLPRPCRVLVLLNPRGGKGKALQLFRSHVQPLLAEAEISFTLMLTERRNHARELVRSEELGRWDALVVMSGDALMHEVVNGLMERPDWETAIQKPLCSLPAGSGNALAASLNHYAGYEQVTNEDLLTNCTLLLCRRLLSPMNLLSLHTASGLRLFSVLSLAWGFIADVDLESEKYRRLGEMRFTLGTFLRLAALRTYRGRLAYLPVGRVGSKTPASPVVVQQGPVDAHLVPLEEPVPSHWTVVPDEDFVLVLALLHSHLGSEMFAAPMGRCAAGVMHLFYVRAGVSRAMLLRLFLAMEKGRHMEYECPYLVYVPVVAFRLEPKDGKGVFAVDGELMVSEAVQGQVHPNYFWMVSGCVEPPPSWKPQQMPPPEEPL
- affinity for sphingosine compared with wildtype hSK ([6]; FIG. 14): remains unaffected
- Km [6]: 15.5 µM
- affinity for ATP compared with wildtype hSK ([7]; FIG. 13): considerably lower affinity for ATP
- Vmax [3]: 32 percentage of the maximum velocity calculated for SK^WT
- catalytic activity relative to wildtype hSK ([3]; transfected HEK293T cell lysates (FIG. 12)): ~5%

B3: hSK^WT: wild-type human sphingosine kinase (SK-1), recombinant, FLAG tagged, expressed in HEK293T cells (protein, UniProt Q9NYA1 1-384, looked up)
Sphingosine kinase 1: MDPAGGPRGVLPRPCRVLVLLNPRGGKGKALQLFRSHVQPLLAEAEISFTLMLTERRNHARELVRSEELGRWDALVVMSGDGLMHEVVNGLMERPDWETAIQKPLCSLPAGSGNALAASLNHYAGYEQVTNEDLLTNCTLLLCRRLLSPMNLLSLHTASGLRLFSVLSLAWGFIADVDLESEKYRRLGEMRFTLGTFLRLAALRTYRGRLAYLPVGRVGSKTPASPVVVQQGPVDAHLVPLEEPVPSHWTVVPDEDFVLVLALLHSHLGSEMFAAPMGRCAAGVMHLFYVRAGVSRAMLLRLFLAMEKGRHMEYECPYLVYVPVVAFRLEPKDGKGVFAVDGELMVSEAVQGQVHPNYFWMVSGCVEPPPSWKPQQMPPPEEPL
modifications: FLAG tag
notes: wild-type human sphingosine kinase (SK-1), recombinant, FLAG tagged, expressed in HEK293T cells
- Km [6]: 12.1 µM
- Km ([7]; sphingosine 100 μM, ATP 0-2 mM (hSK^WT), 0-40 mM (hSK^G82A), non-linear regression): 115 µM
- Vmax [3]: 100 percentage of the maximum velocity calculated for SK^WT

Source: patent publication US20080279841A1, “Novel Therapeutic Molecular Variants And Uses Thereof” (MEDVET SCIENCE PTY LTD., priority 2000, published 2008)
